By Kd is commonly meant a measure of binding affinity in units of concentration.

We go through 1 molecule from paper doi:10.1101/2025.01.09.632085.

The data set addresses thrombin (UniProt P00734;P00734 328-363;364-622). As to the kind of experiment: BLI. (Biolayer interferometry detects binding as a change in optical thickness at a sensor tip.)

B1: HD1 (structured_DNA)
DNA: GGTTGGTGTGGTTGG
B1 gave an equilibrium dissociation constant (Kd) of 32 ± 4 nM.
